5 molecules from PMC2365708, “Binding of MutS protein to oligonucleotides containing a methylated or an ethylated guanine residue, and correlation with mutation frequency” can be followed below.

In this data set the target is T1, MutS (Escherichia coli, UniProt P23909 1-853).
T1 sequence: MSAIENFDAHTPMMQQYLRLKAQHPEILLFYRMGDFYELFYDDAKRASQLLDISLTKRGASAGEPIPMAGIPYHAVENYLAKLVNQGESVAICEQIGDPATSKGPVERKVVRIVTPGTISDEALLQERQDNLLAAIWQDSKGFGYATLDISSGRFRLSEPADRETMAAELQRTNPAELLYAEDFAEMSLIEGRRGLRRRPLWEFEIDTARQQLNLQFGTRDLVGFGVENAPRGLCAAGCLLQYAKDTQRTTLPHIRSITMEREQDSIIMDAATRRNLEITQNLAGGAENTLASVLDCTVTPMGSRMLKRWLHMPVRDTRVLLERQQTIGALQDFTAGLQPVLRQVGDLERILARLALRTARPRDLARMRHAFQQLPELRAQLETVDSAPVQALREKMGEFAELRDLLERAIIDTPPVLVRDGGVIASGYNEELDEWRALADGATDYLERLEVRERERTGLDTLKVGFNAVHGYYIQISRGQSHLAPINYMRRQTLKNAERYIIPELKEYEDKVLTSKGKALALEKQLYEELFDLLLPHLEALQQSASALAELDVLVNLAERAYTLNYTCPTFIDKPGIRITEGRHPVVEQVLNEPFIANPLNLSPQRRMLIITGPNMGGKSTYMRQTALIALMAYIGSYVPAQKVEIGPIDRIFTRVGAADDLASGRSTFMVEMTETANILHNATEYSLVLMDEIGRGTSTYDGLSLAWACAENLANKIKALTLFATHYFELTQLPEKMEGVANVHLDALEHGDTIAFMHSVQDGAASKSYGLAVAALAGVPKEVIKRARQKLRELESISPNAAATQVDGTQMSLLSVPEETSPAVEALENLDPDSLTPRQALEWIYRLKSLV
Nature of the data set: EMSA; 5 mM Mg2+; 20 pmol unlabeled GC duplex; 20 mM Tris-HCl pH 7.6, 50 mM KCl, 5 mM MgCl2, 1 mM DTT, 0.05 mg/ml BSA, 37 °C 15 min, 20 μl, 2 pmol labeled duplex, 20 pmol unlabeled GC duplex, 5% native PAGE. The following applies: protein: recombinant, tags: His6, chain copies: 2, label: 5'-32P (KN-2 or KN-3 strand). On the technique in general: Mobility shift assays separate free from complexed probe on a gel.

B1: O6-MeG:C duplex (dsDNA)
DNA 1: GGTCGCTGGGGAATGGGAGTGGCCACGGCG
DNA 2: CGCCGTGGCCACTCCCATTCCCCAGCGACC
modifications: O6-methylguanine opposite C
A word on the Kd: it is the constant that tells how readily two partners part at equilibrium. As for B1, under “O6-MeG:C pair”, the Kd is 220 nM.

B2: G:T duplex (dsDNA)
DNA 1: GGTCGCTGGGGAATGGGAGTGGCCACGGCG
DNA 2: CGCCGTGGCCACTCTCATTCCCCAGCGACC
B2: the Kd (G:T mismatch) amounted to 75 nM.

B3: O6-EtG:T duplex (dsDNA)
DNA 1: GGTCGCTGGGGAATGGGAGTGGCCACGGCG
DNA 2: CGCCGTGGCCACTCTCATTCCCCAGCGACC
modifications: O6-ethylguanine opposite T
In the case of B3, the Kd (O6-EtG:T pair) worked out at 210 nM.

B4: O6-EtG:C duplex (dsDNA)
DNA 1: GGTCGCTGGGGAATGGGAGTGGCCACGGCG
DNA 2: CGCCGTGGCCACTCCCATTCCCCAGCGACC
modifications: O6-ethylguanine opposite C
With B4, the Kd (O6-EtG:C pair) was determined as 220 nM.

B5: O6-MeG:T duplex (dsDNA)
DNA 1: GGTCGCTGGGGAATGGGAGTGGCCACGGCG
DNA 2: CGCCGTGGCCACTCTCATTCCCCAGCGACC
modifications: O6-methylguanine opposite T
Take B5: for the setting “O6-MeG:T pair”, the Kd came to 120 nM.
